Experimental data from publication doi:10.1101/2024.03.15.585200.

Molecular target: Toxoplasma gondii ABCB7 homolog (TGGT1_269000) (Toxoplasma gondii)
Test: native gel or EMSA

Substance: Toxoplasma gondii ABCB7 homolog (TGGT1_269000) (natural protein)
- stoichiometry N: 2
